Experimental data: US20170306033A1 (Amgen, published 2017)
Substitutions are numbered along the chain they refer to.

Assays:
human PAC1 receptor = target: T1, human PAC1 receptor (human, UniProt P41586 21-468); assay: cell-based or functional assay
T1 sequence: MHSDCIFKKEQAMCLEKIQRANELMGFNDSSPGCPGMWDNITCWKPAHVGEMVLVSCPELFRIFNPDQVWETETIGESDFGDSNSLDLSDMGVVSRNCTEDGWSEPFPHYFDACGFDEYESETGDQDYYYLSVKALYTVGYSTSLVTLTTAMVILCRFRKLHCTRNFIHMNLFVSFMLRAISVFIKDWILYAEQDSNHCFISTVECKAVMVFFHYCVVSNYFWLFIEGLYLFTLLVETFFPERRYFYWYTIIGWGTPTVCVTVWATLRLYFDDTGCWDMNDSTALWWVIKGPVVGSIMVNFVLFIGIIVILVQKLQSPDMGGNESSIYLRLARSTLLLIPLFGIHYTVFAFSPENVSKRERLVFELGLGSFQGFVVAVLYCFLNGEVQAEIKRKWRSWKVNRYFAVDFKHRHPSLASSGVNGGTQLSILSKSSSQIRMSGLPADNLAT

human CGRP receptor = human CGRP receptor (human, UniProt Q16602 23-461; O60894 27-148); assay: cell-based or functional assay
human CGRP receptor, sequence (Q16602 23-461 limits assumed, chain 1 of 2): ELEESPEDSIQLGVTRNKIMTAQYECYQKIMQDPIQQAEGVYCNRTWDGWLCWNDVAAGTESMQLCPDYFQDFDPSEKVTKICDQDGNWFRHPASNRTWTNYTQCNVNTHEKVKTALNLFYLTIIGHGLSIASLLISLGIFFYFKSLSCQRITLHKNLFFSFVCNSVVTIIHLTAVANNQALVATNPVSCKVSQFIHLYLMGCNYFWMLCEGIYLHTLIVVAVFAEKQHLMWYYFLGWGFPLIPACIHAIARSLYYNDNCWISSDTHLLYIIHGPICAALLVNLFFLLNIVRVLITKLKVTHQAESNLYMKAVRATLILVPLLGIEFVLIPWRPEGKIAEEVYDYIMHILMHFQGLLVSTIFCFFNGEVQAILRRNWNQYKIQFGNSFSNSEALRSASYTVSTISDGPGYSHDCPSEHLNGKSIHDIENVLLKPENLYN
human CGRP receptor, sequence (O60894 27-148 limits assumed, chain 2 of 2): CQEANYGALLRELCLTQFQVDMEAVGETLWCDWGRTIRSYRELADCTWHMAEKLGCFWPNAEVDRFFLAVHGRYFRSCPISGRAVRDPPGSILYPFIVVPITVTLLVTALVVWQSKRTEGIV

B1: iPS:327712 (bispecific antibody, human IgG1, kappa, lambda, N297G)
light 1: not shown
heavy 1: not shown
light 2: QSVLTQPPSVSAAPGQKVTISCSGSSSNIGNNYVSWYQQLPGTAPKLLIYDNNKRPSGIPDRFSGSKSGTSATLGITGLQTGDEADYYCGTWDSRLSAVVFGGGTKLTVLGQPKANPTVTLFPPSSEELQANKATLVCLISDFYPGAVTVAWKADGSPVKAGVETTKPSKQSNNKYAAKSYLSLTPEQWKSHRSYSCQVTHEGSTVEKTVAPTECS
heavy 2: QVQLVESGGGVVQPGRSLRLSCAASGFTFSSFGMHWVRQAPGKGLEWVAVISFDGSIKYSVDSVKGRFTISRDNSKNTLFLQMNSLRAEDTAVYYCARDRLNYYDSSGYYHYKYYGMAVWGQGTTVTVSSASTKGPSVFPLAPSSKSTSGGTAALGCLVKDYFPEPVTVSWNSGALTSGVHTFPAVLQSSGLYSLESVVTVPSSSLGTQTYICNVNHKPSNTKVDKKVEPKSCDKTHTCPPCPAPELLGGPSVFLFPPKPKDTLMISRTPEVTCVVVDVSHEDPEVKFNWYVDGVEVHNAKTKPCEEQYGSTYRCVSVLTVLHQDWLNGKEYKCKVSNKALPAPIEKTISKAKGQPREPQVYTLPPSRKKMTKNQVSLTCLVKGFYPSDIAVEWESNGQPENNYKTTPPVLKSDGSFFLYSKLTVDKSRWQQGNVFSCSVMHEALHNHYTQKSLSLSPGK
Human PAC1 receptor
  % inhibition of human PAC1: 81%
Human CGRP receptor
  % inhibition of human CGRPR: 89%

B2: iPS:327731 (bispecific antibody, human IgG1, kappa, lambda, N297G)
light 1: not shown
heavy 1: not shown
light 2: B1 light 2
heavy 2: B1 heavy 2 with D105E, K370E
Human PAC1 receptor
  % inhibition of human PAC1: 74%
Human CGRP receptor
  % inhibition of human CGRPR: 74%

B3: iPS:327717 (bispecific antibody, human IgG1, kappa, lambda, N297G)
light 1: not shown
heavy 1: not shown
light 2: B1 light 2 with G75A
heavy 2: B1 heavy 2 with K370E
Human PAC1 receptor
  % inhibition of human PAC1: 94%
Human CGRP receptor
  % inhibition of human CGRPR: 92%

B4: iPS:327870 (bispecific antibody, human IgG2, kappa, lambda)
light 1: not shown
heavy 1: QVQLQQSGPGLVKPSQTLSLTCAISGDSVSSNSATWNWIRQSPSRGLEWLGRTYYRSKWSNHYAVSVKSRITINPDTSKSQFSLQLNSVTPEDTAVYYCARGTWKQLWFLDHWGQGTLVTVSSASTKGPSVFPLAPCSRSTSESTAALGCLVKDYFPEPVTVSWNSGALTSGVHTFPAVLQSSGLYSLKSVVTVPSSNFGTQTYTCNVDHKPSNTKVDKTVERKCCVECPPCPAPPVAGPSVFLFPPKPKDTLMISRTPEVTCVVVDVSHEDPEVQFNWYVDGVEVHNAKTKPREEQFNSTFRVVSVLTVVHQDWLNGKEYKCKVSNKGLPAPIEKTISKTKGQPREPQVYTLPPSREEMTKNQVSLTCLVDGFYPSDIAVEWESNGQPENNYDTTPPMLDSDGSFFLYSDLTVDKSRWQQGNVFSCSVMHEALHNHYTQKSLSLSPGK
light 2: B1 light 2 with A72T
heavy 2: QVQLVESGGGVVQPGRSLRLSCAASGFTFSSFGMHWVRQAPGKGLEWVAVISFDGSIKYSVDSVKGRFTISRDNSKNTLFLQMNSLRAEDTAVYYCARDRLNYYDSSGYYHYKYYGMAVWGQGTTVTVSSASTKGPSVFPLAPCSRSTSESTAALGCLVKDYFPEPVTVSWNSGALTSGVHTFPAVLQSSGLYSLESVVTVPSSNFGTQTYTCNVDHKPSNTKVDKTVERKCCVECPPCPAPPVAGPSVFLFPPKPKDTLMISRTPEVTCVVVDVSHEDPEVQFNWYVDGVEVHNAKTKPREEQFNSTFRVVSVLTVVHQDWLNGKEYKCKVSNKGLPAPIEKTISKTKGQPREPQVYTLPPSRKKMTKNQVSLTCLVKGFYPSDIAVEWESNGQPENNYKTTPPMLKSDGSFFLYSKLTVDKSRWQQGNVFSCSVMHEALHNHYTQKSLSLSPGK
Human PAC1 receptor
  % inhibition of human PAC1: 86%
Human CGRP receptor
  % inhibition of human CGRPR: 67%

B5: iPS:327704 (bispecific antibody, human IgG1, kappa, lambda, N297G)
light 1: not shown
heavy 1: not shown
light 2: B1 light 2
heavy 2: B1 heavy 2 with K370E
Human PAC1 receptor
  % inhibition of human PAC1: 71%
Human CGRP receptor
  % inhibition of human CGRPR: 82%

B6: iPS:327713 (bispecific antibody, human IgG1, kappa, lambda, N297G)
light 1: DIQLTQSPSFLSASVGDRVTITCRASQSIGRSLHWYQQKPGKAPKLLIKYASQSLSGVPSRFSGSGSGTEFTLTISSLQPEDFATYYCHQSSRLPFTFGPGTKVDIKRTVAAPSVFIFPPSDEQLKSGTASVVCLLNNFYPREAKVQWKVDNALQSGNSQESVTEQDSKDSTYSLESTLTLSKADYEKHKVYACEVTHQGLSSPVTKSFNRGEC
heavy 1: not shown
light 2: B1 light 2
heavy 2: B1 heavy 2
Human PAC1 receptor
  % inhibition of human PAC1: 85%
Human CGRP receptor
  % inhibition of human CGRPR: 89%

B7: iPS:327718 (bispecific antibody, human IgG1, kappa, lambda, N297G)
light 1: not shown
heavy 1: not shown
light 2: B1 light 2 with G75A
heavy 2: B1 heavy 2 with K370E
Human PAC1 receptor
  % inhibition of human PAC1: 70%
Human CGRP receptor
  % inhibition of human CGRPR: 78%

B8: iPS:327722 (bispecific antibody, human IgG1, kappa, lambda, N297G)
light 1: DIQMTQSPSSLSASVGDRITITCRASQSISRYLNWYQQKPGKAPKLLIYAASSLQSGIPSRFSGSGSGTDFTLTINSLQPEDFATYFCQQSYSPPFTFGEGTKVDIKRTVAAPSVFIFPPSDEQLKSGTASVVCLLNNFYPREAKVQWKVDNALQSGNSQESVTEQDSKDSTYSLESTLTLSKADYEKHKVYACEVTHQGLSSPVTKSFNRGEC
heavy 1: not shown
light 2: B1 light 2 with G75A, G103K
heavy 2: B1 heavy 2 with G44E, K370E
Human PAC1 receptor
  % inhibition of human PAC1: 38%
Human CGRP receptor
  % inhibition of human CGRPR: 82%

B9: iPS:327703 (bispecific antibody, human IgG1, kappa, lambda, N297G)
light 1: not shown
heavy 1: not shown
light 2: B1 light 2
heavy 2: B1 heavy 2 with K370E
Human PAC1 receptor
  % inhibition of human PAC1: 87%
Human CGRP receptor
  % inhibition of human CGRPR: 83%

B10: iPS:327730 (bispecific antibody, human IgG1, kappa, lambda, N297G)
light 1: EIVLTQSPATLSLSPGERATLSCRASQSVGRSLHWYQQKPGQAPRLLIKYASQSLSGIPARFSGSGSGTDFTLTISSLEPEDFAVYYCHQSSRLPFTFGPGTKVDIKRTVAAPSVFIFPPSDEQLKSGTASVVCLLNNFYPREAKVQWKVDNALQSGNSQESVTEQDSKDSTYSLESTLTLSKADYEKHKVYACEVTHQGLSSPVTKSFNRGEC
heavy 1: not shown
light 2: B1 light 2 with G75A
heavy 2: B1 heavy 2
Human PAC1 receptor
  % inhibition of human PAC1: 101%
Human CGRP receptor
  % inhibition of human CGRPR: 87%

B11: iPS:327732 (bispecific antibody, human IgG1, kappa, lambda, N297G)
light 1: not shown
heavy 1: not shown
light 2: B1 light 2
heavy 2: B1 heavy 2 with D105E, K370E
Human PAC1 receptor
  % inhibition of human PAC1: 56%
Human CGRP receptor
  % inhibition of human CGRPR: 69%

B12: iPS:327714 (bispecific antibody, human IgG1, kappa, lambda, N297G)
light 1: B10 light 1
heavy 1: not shown
light 2: B1 light 2
heavy 2: B1 heavy 2
Human PAC1 receptor
  % inhibition of human PAC1: 104%
Human CGRP receptor
  % inhibition of human CGRPR: 94%

B13: iPS:327729 (bispecific antibody, human IgG1, kappa, lambda, N297G)
light 1: B6 light 1
heavy 1: not shown
light 2: B1 light 2 with G75A
heavy 2: B1 heavy 2
Human PAC1 receptor
  % inhibition of human PAC1: 85%
Human CGRP receptor
  % inhibition of human CGRPR: 84%

B14: iPS:327721 (bispecific antibody, human IgG1, kappa, lambda, N297G)
light 1: B10 light 1
heavy 1: not shown
light 2: B1 light 2 with G75A
heavy 2: B1 heavy 2 with K370E
Human PAC1 receptor
  % inhibition of human PAC1: 99%
Human CGRP receptor
  % inhibition of human CGRPR: 81%

B15: iPS:327719 (bispecific antibody, human IgG1, kappa, lambda, N297G)
light 1: B6 light 1
heavy 1: not shown
light 2: B1 light 2 with G75A
heavy 2: B1 heavy 2 with K370E
Human PAC1 receptor
  % inhibition of human PAC1: 59%
Human CGRP receptor
  % inhibition of human CGRPR: 85%
